According to patent US20240101645A1 (HENRY M JACKSON FOUNDATION FOR THE ADVANCEMENT OF MILITARY …, published 2024):

T1: HCoV-NL63 spike antigens (bead panel) (HCoV-NL63, UniProt Q6Q1S2 19-1296)
T1 sequence: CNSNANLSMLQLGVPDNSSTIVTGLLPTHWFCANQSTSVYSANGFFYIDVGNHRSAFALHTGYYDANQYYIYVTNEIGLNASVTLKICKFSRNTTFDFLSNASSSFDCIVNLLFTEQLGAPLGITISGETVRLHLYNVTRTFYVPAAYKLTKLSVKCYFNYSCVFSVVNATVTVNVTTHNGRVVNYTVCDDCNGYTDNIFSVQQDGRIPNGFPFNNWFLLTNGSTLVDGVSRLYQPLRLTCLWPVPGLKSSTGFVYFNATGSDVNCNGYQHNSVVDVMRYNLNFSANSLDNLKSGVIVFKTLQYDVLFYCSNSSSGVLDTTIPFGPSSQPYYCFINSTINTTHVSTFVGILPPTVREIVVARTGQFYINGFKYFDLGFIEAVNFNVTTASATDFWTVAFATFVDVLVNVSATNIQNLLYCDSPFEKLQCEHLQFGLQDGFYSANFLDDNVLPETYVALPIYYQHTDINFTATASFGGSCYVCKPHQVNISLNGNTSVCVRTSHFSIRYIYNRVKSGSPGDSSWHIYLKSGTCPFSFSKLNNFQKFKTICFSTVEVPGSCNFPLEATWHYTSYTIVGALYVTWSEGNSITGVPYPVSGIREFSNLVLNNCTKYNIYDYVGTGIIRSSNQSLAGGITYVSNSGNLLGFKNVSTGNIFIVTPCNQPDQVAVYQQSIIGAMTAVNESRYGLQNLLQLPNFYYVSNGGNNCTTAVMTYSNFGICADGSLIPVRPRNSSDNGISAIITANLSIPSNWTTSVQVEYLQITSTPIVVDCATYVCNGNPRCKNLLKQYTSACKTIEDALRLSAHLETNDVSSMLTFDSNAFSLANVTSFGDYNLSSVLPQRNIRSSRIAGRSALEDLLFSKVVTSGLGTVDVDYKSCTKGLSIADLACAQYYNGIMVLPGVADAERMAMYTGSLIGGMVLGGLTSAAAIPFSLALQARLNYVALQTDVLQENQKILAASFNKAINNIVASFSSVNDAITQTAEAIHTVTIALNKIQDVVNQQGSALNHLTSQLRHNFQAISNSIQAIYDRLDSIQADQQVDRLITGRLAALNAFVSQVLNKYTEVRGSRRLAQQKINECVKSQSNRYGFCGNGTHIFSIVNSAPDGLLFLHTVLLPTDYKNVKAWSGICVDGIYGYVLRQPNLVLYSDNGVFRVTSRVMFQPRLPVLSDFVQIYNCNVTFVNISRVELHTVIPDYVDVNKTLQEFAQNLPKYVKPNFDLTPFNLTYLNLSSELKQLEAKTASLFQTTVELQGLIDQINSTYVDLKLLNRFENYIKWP

T2: HCoV-OC43 spike antigens (bead panel) (HCoV-OC43, UniProt P36334 14-1297)
T2 sequence: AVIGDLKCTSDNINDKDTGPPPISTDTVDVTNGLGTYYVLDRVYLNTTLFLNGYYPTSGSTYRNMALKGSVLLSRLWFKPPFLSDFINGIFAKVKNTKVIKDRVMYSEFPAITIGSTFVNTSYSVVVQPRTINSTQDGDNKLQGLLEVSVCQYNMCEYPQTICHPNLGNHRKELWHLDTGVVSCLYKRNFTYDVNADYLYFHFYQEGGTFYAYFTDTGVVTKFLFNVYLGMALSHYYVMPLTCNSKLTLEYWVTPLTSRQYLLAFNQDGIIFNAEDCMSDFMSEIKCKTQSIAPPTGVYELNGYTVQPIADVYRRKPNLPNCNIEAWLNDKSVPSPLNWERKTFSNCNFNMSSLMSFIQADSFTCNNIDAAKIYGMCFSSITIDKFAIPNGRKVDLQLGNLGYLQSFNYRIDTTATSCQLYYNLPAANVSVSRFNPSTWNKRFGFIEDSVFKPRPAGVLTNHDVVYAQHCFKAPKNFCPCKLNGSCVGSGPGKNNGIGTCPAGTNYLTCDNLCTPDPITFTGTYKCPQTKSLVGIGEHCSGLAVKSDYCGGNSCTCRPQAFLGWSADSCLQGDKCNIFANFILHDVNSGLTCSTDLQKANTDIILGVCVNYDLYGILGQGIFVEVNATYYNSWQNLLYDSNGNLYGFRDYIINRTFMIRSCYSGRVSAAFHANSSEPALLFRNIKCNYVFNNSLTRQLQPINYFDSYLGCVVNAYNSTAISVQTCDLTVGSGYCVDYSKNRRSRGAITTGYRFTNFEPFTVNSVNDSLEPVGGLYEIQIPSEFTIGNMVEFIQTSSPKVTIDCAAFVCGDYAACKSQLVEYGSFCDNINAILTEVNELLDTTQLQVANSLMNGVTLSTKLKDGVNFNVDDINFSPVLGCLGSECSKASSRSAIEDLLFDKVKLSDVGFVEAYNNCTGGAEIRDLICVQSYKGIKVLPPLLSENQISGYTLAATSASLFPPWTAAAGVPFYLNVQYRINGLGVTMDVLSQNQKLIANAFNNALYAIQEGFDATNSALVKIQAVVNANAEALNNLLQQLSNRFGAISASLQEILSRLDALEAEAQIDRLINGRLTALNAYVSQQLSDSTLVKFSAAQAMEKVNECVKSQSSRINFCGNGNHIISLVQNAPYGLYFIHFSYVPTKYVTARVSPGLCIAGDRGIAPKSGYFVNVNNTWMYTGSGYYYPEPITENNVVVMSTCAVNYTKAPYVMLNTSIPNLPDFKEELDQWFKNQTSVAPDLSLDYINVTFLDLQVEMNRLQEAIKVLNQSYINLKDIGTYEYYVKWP


How the values were obtained:
[1] = biological target: T1, HCoV-NL63 spike antigens (bead panel); experiment: multiplex bead assay
[2] = biological target: T2, HCoV-OC43 spike antigens (bead panel); experiment: multiplex bead assay

| Binder | binding result [1] | binding result [2] |
| --- | --- | --- |
| COV_2137 (antibody, V domains shown, human IgG1) VH: EVQLVESGGGLVKPGGSLRLSCAASGFTFSSYTMNWVRQAPGKGLEWVSSISSGSSFIYYADSLRGRFTISRDNAKNSLYLQMNSLRAEDTAVYYCARAPEPQSVIYAYWYFDLWGRGTLVTVSS VL: QSALTQPASVSGSPGQSITFSCTGTSSDVGSYNLVSWYQQYPGKAPKLMIYEVNKRPSGVSNRFSGSKSGNTASLTISGLQAEDEADYYCCSYAGSSTFYVFGTGTKVTVLG | no binding | no binding |
| COV_2134 (antibody, V domains shown, human IgG1) VH: EVQLVESGGGVVQPGRSLRLSCAASGFIFSSYGMYWVRQAPGKGLEWVAVIWYDGSNKYYADSVKGRFTISRDNSKNTLYLQMNSLRAEDTAVYYCARDLSSSSGWDDYYYYYGMDVWGQGTTVTVSS VL: not shown | no binding | no binding |
| COV_2193 (antibody, V domains shown, human IgG1) VH: QVQLVQSGAEVKKPGASVKVSCKVSGYTLTDLSMHWVRQTPGKGLEWMGGFDAEDGETIYAQNFQGRVTMTEDTSIDVAYMELSSLRSEDTAVYYCATGSVGPDYWGQGTLVTVSS VL: SSELTQDPAVSVALGQTVRITCQGDSLRSYYASWFQQKPGQAPVLVIYLKNDRPSGIPDRFSGSSSGNTASLTITGAQAEDEADYYCNSRDSSGNHQVFGGGTKLTVL | no binding | no binding |
| COV_1050 (antibody, V domains shown, human IgG1) VH: QVQLVESGGGVVQPGRSLRLSCAASRFTFSSYAMHWVRQAPGKGLEWVAVISFDGSNKYYADSVKGRFTIFRDNSKNTLSLQMNSLRTEDTAMYYCASPAGYYESLWGQGTLVTVSS VL: SYELTQPPSVSVSPGQTARVTCSGDALSKQYGFWYQQKPGQAPTLVIYKDTERPSGIPERFSGSGSGTTVTLTISGVQAEDEADYYCQSTDNSGRWVFGGGTKLTVLG | no binding | no binding |
| COV_2100 (antibody, V domains shown, human IgG1) VH: EVQLVESGGGLVQPGGSLRLSCAASGFTFSSYDMYWVRQATGKGLEWVSAIGTAGDTYYPGSVKGRFTISRENAKNSLYLRMNSLRAGDTAVYFCARADKNTAMFFDYWGQGTLVTVSS VL: DIQMTQSPSSLSASVGDRVTITCRASQNINNFLHWYQQKPGNAPKLLIYAASTLQSGVPSRFSGSGSGTDFTLTISSLQPEDFATYYCQQSYSTPGGTFGGGTKVEIK | no binding | no binding |
| COV_1118 (antibody, V domains shown, human IgG1) VH: EVQLVESGGGLVKPGGSLRLSCAASGFSFSNYNMNWVRQAPGKGLEWVSYISSSSSYIYYADSVKGRFTISRDNAKNSLYLQMNSLRGEDTAVYSCAREASGAYYFDRSGYFDYWGQGTLVTVSP VL: not shown | no binding | no binding |
| COV_1136 (antibody, V domains shown, human IgG1) VH: EVQLVESGGGLVKPGGSLRLSCAASGFTFSDCNMNWVRQAPGKGLEWVSSISSRSSYIYYADSVKGRFTISRDNAKNSLYLQMNSLRAEDTAVYSCAREASGAYYFDRSGYFDYWGQGTLVTVSP VL: DIQMTQSPSTLSASVGDRVTITCRASQSISSWLAWYQQKPGKAPNLLIYKASSLESGVPSRFSGSGSGTEFTLTISSLQPDDFATYYCQQYNTYPWTFGQGTKVEIKR | no binding | no binding |
| COV_3053 (antibody, V domains shown, human IgG1) VH: EVQLVESGGGLVQPGRSLRLSCTASGFTLGDYAMTWVRQAPGKGLEWLGIIRNKRYGETKQYAASVKGRFTFSRDDSKGIGYLQRLSLKIEDTGVYYCTREHIVRDDAFDVWGQGTTVTVSS VL: DIVMTQSPDSLAVSLGERATINCKSSQSVLYSSNNKNYIAWYQQRPGQPPKLLIYWTSTRASGVPDRFSGSGSGTDFALTISSLQAEDVAVYYCQQYYTIPRTFGQGTKVEIK | no binding | no binding |
| COV_3088 (antibody, V domains shown, human IgG1) VH: EVQLVESGGGLVQPGGSLRLSCAASGFTFSSYDMHWVRQATGKGLEWVSAIGTAGDTYYPGSVKGRFTISRENAKNSLYLQMNSLRAGDTAVYYCARGSGWPPFFDYWGQGTLVTVSS VL: SYELTQPPSVSVAPGKTARITCGGNNIGSKSVHWYQQKPGQAPVLVIYYDSDRPSGIPERFSGSNSGNTATLTISRVEAGDEADYYCQVWDSSSDHHWVFGGGTKLTVL | no binding | no binding |
| COV_2057 (antibody, V domains shown, human IgG1) VH: EVQLVQSGAEVKKPGESLKISCKGSGYSFISYWIAWVRQMPGKGLEWMGIIYPGDSDTTYSPSFQGQVTISADKSISTAYLQWSSLKASDTAIYYCARLLYYSDSSPLDSWGQGTLVTVSS VL: DIQMTQSPSSLSASVGDRVTITCRASQSISTYLNWYQQKPGKAPNLLIYAASSLQSGVPSRFSGSGSGTDFTLTISSLQPEDFATYYCQQSHSTPRTFGPGTKVDIK | no binding | no binding |
| COV_1025 (antibody, V domains shown, human IgG1) VH: QVQLVESGGGVVQPGRSLRLSCAASGFTFNTYAMHWVRQAPGKGLEWVAIISYDGGNKYYADSMKGRFTISRDNSKNTLYLQMNSLRAEDTAVYYCARARTGNYYYGMDVWGQGTTVTVSS VL: not shown | no binding | no binding |
| COV_2103 (antibody, V domains shown, human IgG1) VH: EVQLVESGGGVVQPGRSLRLSCGASGFTFSSYGIHWVRQAPGKGLDWVAVIWHDGSQKYYGDSVKGRFTISRDNSKNTLYLQMNRLRAEDTAVYYCARDSGDDYDSSGYPIGNAFDLWGQGTMVTVSS VL: DIQMTQSPSTLSASVGDRVTITCRASQFINSWLAWYQQKPGKAPKLLIYKASSLETGVPSRFSGSGSGTEFTLTISSLQPDDFATYYCQQYNTYSFTFGPGTKVDIK | no binding | no binding |
| COV_2196 (antibody, V domains shown, human IgG1) VH: QVQLVQSGAEVKKPGASVKVSCKVSGYTLIELSMHWVRQAPGKGLEWMGGFDPEDAKTIYAQKFQGRVTMTEDTSTDTAYMELSSLTFEDTAVYYCATTPAFMAAAGDFDYWGQGTLVTVSS VL: QPVLTQPSSVSVSPGQTATITCSGDVLAKKYARWFQQKPGQAPMLVIYKDTERPSGIPERFSGSSSGTTVTLTINGAQVEDEADYYCYSAAAWVFGGGTKLTVL | no binding | no binding |
